Experimental data from paper PMC3585134.

How the values were obtained:
[1] = biological target: AIP56^1–285 (N-terminal domain of AIP56, apoptosis-inducing protein of 56 kDa) (Photobacterium damselae piscicida); test: reducing and non-reducing SDS-PAGE; purified AIP56^1–285 and AIP56^286–497, each alone, run with and without DTT (Figure S5A); dimers held by a disulphide formed on oxidation
[2] = biological target: AIP56^1–285 (N-terminal domain of AIP56, apoptosis-inducing protein of 56 kDa) (Photobacterium damselae piscicida); test: reducing and non-reducing SDS-PAGE; reconstituted AIP56: AIP56^1–285 and AIP56^286–497 mixed in equimolar amounts in 8 M urea, 1 mM DTT, refolded by extensive dialysis against sbPBS; run with and without DTT (Figure S6A)
[3] = biological target: AIP56^286–497 (C-terminal domain of AIP56, apoptosis-inducing protein of 56 kDa) (Photobacterium damselae piscicida); test: reducing and non-reducing SDS-PAGE; purified AIP56^1–285 and AIP56^286–497, each alone, run with and without DTT (Figure S5A); dimers held by a disulphide formed on oxidation
[4] = biological target: AIP56^286–497 (C-terminal domain of AIP56, apoptosis-inducing protein of 56 kDa) (Photobacterium damselae piscicida); test: reducing and non-reducing SDS-PAGE; reconstituted AIP56: AIP56^1–285 and AIP56^286–497 mixed in equimolar amounts in 8 M urea, 1 mM DTT, refolded by extensive dialysis against sbPBS; run with and without DTT (Figure S6A)

Row | Substance | stoichiometry N [1] | stoichiometry N [2] | stoichiometry N [3] | stoichiometry N [4]
1 | AIP56^1–285 (N-terminal domain of AIP56, apoptosis-inducing protein of 56 kDa) (domain or fragment) | 2 | 2 |  | 
2 | AIP56^286–497 (C-terminal domain of AIP56, apoptosis-inducing protein of 56 kDa) (domain or fragment) |  |  | 2 | 2
